# Results as given in article PMC4505066 (2015).
# B1: wild type GSI motif peptide (CPRPLKEGSITQGTPLKYDTG), SMRT amino acids 1450-1469 with an amino-terminal cysteine [modified: BODIPY-TMR coupled to the N-terminal cysteine; BODIPY-TMR coupled to the N-terminal cysteine] [not stated] / HDAC4 … (parent complex)
# chain 1: CPRPLKEGSITQGTPLKYDTG
# chain 2: TKPRFTTGLVYDTLMLKHQCTCGSSSSHPEHAGRIQSIWSRLQETGLRGKCECIRGRKATLEELQTVHSEAHTLLYGTNPLNRQKLDSKKLLGSLASVFVRLPCGGVGVDSDTIWNEVHSAGAARLAVGCVVELVFKVATGELKNGFAVVRPPGHHAEESTPMGFCYFNSVAVAAKLLQQRLSVSKILIVDWDVHHGNGTQQAFYSDPSVLYMSLHRYDDGNFFPGSGAPDEVGTGPGVGFNVNMAFTGGLDPPMGDAEYLAAFRTVVMPIASEFAPDVVLVSSGFDAVEGHPTPLGGYNLSARCFGYLTKQLMGLAGGRIVLALEGGHDLTAICDASEACVSALLGNELDPLPEKVLQQRPNANAVRSMEKVMEIHSKYWRCLQRTTSTAGRSLIEAQTCENEEAETVT
# Variants of: B1
# Assay: fluorescence anisotropy
row,Variant,Kd [µM]
1,chain 1 T11V,16.9
2,chain 1 Q12A,5.47
3,chain 1 P15A,47
4,chain 1 T11A,14.4
5,chain 1 Q12E,17.7
